# Assay results reported in US20240016892A1 (SHATTUCK LABS, published 2024).
# T1: recombinant human HVEM (human, UniProt Q92956 39-202)
# T1 construct: Construct limits and tag not specified; also called rhHVEM; TNFRSF14
# T1 sequence (looked up): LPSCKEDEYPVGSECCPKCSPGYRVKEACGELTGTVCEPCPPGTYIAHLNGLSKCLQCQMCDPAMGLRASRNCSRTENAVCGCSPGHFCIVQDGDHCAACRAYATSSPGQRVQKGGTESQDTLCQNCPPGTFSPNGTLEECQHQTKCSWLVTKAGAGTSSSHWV
# T2: recombinant human CD112 (PVRL2) (human, UniProt Q92692 32-360)
# T2 construct: also called rhCD112 (PVRL2); Nectin-2
# T2 sequence (looked up): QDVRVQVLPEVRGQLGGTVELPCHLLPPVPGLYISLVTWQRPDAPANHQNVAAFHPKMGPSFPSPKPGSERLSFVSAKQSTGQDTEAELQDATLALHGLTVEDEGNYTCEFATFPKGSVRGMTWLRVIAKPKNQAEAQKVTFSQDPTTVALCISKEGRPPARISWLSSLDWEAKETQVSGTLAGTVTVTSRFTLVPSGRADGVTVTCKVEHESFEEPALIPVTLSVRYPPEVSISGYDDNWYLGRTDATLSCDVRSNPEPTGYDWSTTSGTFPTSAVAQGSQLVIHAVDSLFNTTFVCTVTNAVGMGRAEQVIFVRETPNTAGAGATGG
# T3: recombinant human PVR (human, UniProt P15151 21-343)
# T3 construct: The tagged PVR of the BLI assay and the biotinylated PVR used as detector in MSD are treated as one molecule; also called rhPVR; CD155
# T3 sequence (looked up): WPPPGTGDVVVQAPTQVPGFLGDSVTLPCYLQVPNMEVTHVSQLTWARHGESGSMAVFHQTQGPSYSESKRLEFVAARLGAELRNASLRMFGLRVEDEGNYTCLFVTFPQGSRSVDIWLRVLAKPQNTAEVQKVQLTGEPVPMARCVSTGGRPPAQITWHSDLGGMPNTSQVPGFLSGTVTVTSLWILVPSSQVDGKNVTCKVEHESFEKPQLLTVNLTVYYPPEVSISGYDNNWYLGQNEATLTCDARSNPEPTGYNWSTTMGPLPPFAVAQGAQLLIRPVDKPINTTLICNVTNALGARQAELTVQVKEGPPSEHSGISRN
# Legend:
# recombinant human HVEM = target: T1, recombinant human HVEM; experiment: BLI (Octet-Red96), tagged rhHVEM immobilised on biosensor
# Method: (§1) Bio-Layer interferometry-based affinity testing was used to determine the on-rates (Ka), off-rates (Kd) and binding affinities (KD) of the TIGIT-Fc-LIGHT chimeric protein to intended binding targets, using histidine- or biotin-tagged versions of the human recombinant proteins (PVR, HVEM, LTβR, PVRL2, PVRL3, and Nectin-4; purchased from Acro Biosystems or Sino Biological). Commercially available or internally produced single-sided fusion protein controls (TIGIT-Fc and Fc-LIGHT) were also tested in parallel. Targets were immobilized at a concentration of 3 μg/mL in Kinetics buffer (PBS/0.1% Tween-20/1% BSA; pH7.0) to anti-pentaHis or streptavidin coated biosensors. Direct binding of fusion proteins to recombinant target proteins was performed on an Octet-Red96 BLI instrument, using association and dissociation times of 90 and 120 seconds, respectively.
# Protein-protein interactions (PPI) between the fusion proteins and their cognate binding partners were characterized using both recombinant protein and cell-based methods. First, bio-layer interferometry-based affinity testing was used to assess the kinetics of receptor/ligand binding.
# [1] = target: T4, cell surface human LTβR (A375 cells; U2OS/NIK/NFκB reporter cells) (human, UniProt P36941 31-435); experiment: flow cytometry, A375 cells that express human LTβR; cell surface LTβR
# T4 construct: whole, on cells; also called cell surface LTβR
# [2] = target: T2, recombinant human CD112 (PVRL2); experiment: BLI (Octet-Red96), tagged rhCD112 (PVRL2) immobilised on biosensor
# Method: as §1
# [3] = target: T5, recombinant human CD113 (PVRL3) (human, UniProt Q9NQS3 58-404); experiment: BLI (Octet-Red96), tagged rhCD113 (PVRL3) immobilised on biosensor
# T5 construct: also called rhCD113 (PVRL3); Nectin-3
# Method: as §1
# recombinant human PVR = target: T3, recombinant human PVR; experiment: MSD sandwich 'Dual - Potency #2': capture HVEM-Fc, TIGIT-Fc-LIGHT titrated, detection PVR-Biotin (same curve as the capture row)
# Method: For the TIGIT-Fc-LIGHT chimeric protein; MSD Multi-Array plates (MSD) were pre-coated overnight with recombinant human LTβR-Fc or HVEM-Fc (Acro Biosystems) at 4° C. The plates were blocked with Diluent 100 (MSD) for at least one hour at room temperature on a shaker. After washing, analysis samples were added and then serially diluted 3-fold and loaded in duplicate wells to generate 8-10 test concentrations. The bound the TIGIT-Fc-LIGHT chimeric protein was detected with recombinant biotinylated human PVR (Acro Biosystems). Streptavidin conjugated to ruthenium (MSD), was added to bind the biotin labeled detector. MSD Gold Reading buffer (MSD) was added to the plate, and upon application of an electrical charge, an electrochemiluminescent signal was produced and detected with the MSD MESO QuickPlex SQ 120MM, Model 1300, to generate relative light units (RLU). Analogous assays were performed using mTIGIT-Fc-LIGHT and murine recombinant PVR, HVEM, and […] (Acro Biosystems).
# The binding of the TIGIT-Fc-LIGHT chimeric protein to its receptors was characterized by Meso Scale Discovery (MSD) ELISA assays. […] Binding of the chimeric protein to LTβR-Fc was detected using an PVR-Biotin and using an electrochemiluminescence (ECL) readout. […] Binding of the chimeric protein to HVEM-Fc was detected using an PVR-Biotin and using an electrochemiluminescence (ECL) readout. […]
# T5 sequence (Q9NQS3 58-404 limits assumed): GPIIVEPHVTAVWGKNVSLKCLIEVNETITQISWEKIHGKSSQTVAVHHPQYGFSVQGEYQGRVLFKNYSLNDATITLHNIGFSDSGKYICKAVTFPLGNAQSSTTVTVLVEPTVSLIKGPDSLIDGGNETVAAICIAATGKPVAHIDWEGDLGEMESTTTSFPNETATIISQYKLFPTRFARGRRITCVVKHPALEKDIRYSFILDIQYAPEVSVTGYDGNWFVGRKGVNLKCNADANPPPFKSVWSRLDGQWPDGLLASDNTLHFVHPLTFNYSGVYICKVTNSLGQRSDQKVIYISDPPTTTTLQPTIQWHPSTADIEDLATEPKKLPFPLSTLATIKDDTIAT
# T4 sequence (P36941 31-435): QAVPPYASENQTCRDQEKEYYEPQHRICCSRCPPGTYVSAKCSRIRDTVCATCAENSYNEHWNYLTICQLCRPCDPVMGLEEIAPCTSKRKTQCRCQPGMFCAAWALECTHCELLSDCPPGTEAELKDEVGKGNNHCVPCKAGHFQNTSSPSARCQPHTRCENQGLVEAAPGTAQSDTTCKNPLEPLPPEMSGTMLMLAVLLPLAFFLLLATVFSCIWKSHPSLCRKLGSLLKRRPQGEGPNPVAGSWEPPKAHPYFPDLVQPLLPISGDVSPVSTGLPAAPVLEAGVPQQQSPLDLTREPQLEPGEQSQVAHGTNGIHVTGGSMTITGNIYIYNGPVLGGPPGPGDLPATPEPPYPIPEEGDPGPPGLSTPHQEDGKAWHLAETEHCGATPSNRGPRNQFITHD
binder,measurement,setting,value
"human TIGIT-Fc-LIGHT chimeric protein (Fc fusion, Said to exist as a hexamer (dimer of trimers); Glycosylated; also called hTIGIT-Fc-LIGHT; TIGIT-Fc(IgG4)-LIGHT) MMTGTIETTGNISAEKGGSIILQCHLSSTTAQVTQVNWEQQDQLLAICNADLGWHISPSFKDRVAPGPGLGLTLQSLTVNDTGEYFCIYHTYPDGTYTGRIFLEVLESSVAEHGARFQIPSKYGPPCPPCPAPEFLGGPSVFLFPPKPKDQLMISRTPEVTCVVVDVSQEDPEVQFNWYVDGVEVHNAKTKPREEQFNSTYRVVSVLTVLHQDWLSGKEYKCKVSSKGLPSSIEKTISNATGQPREPQVYTLPPSQEEMTKNQVSLTCLVKGFYPSDIAVEWESNGQPENNYKTTPPVLDSDGSFFLYSRLTVDKSRWQEGNVFSCSVLHEALHNHYTQKSLSLSLGKIEGRMDLQLHWRLGEMVTRLPDGPAGSWEQLIQERRSHEVNPAAHLTGANSSLTGSGGPLLWETQLGLAFLRGLSYHDGALVVTKAGYYYIYSKVQLGGVGCPLGLASTITHGLYKRTPRYPEELELLVSQQSPCGRATSSSRVWWDSSFLGGVVHLEAGEKVVVRVLDERLVRLRDGTRSYFGAFMV",Kd,recombinant human HVEM,6.49 nM
same,koff,recombinant human HVEM,0.000173 s⁻¹
same,kon,recombinant human HVEM,26100 M⁻¹ s⁻¹
same,EC50,[1],87.1 nM
same,Kd,[2],3 nM
same,koff,[2],0.000471 s⁻¹
same,kon,[2],172000 M⁻¹ s⁻¹
same,koff,[3],0.00126 s⁻¹
same,kon,[3],130000 M⁻¹ s⁻¹
same,EC50,recombinant human PVR,86 nM
